Laboratory results taken from patent US11965039B2, “Compstatin analogues and their medical uses” (priority 2018, dated 2024).
Starred links: 1 amine or outer side, 2 acyl side, 3 side chain; linkers in the order of their positions; H or OH if unused. Positions of bridges follow the written chain, without caps; N, C: chain ends. Non-standard residues stand in square brackets, D forms with d. Groups on a side chain read outwards from the residue. *: point of attachment. Trp(1-Me) = Cn1cc(C[C@H](N)C(=O)O)c2ccccc21; C18 diacid = O=C(O)CCCCCCCCCCCCCCCCC(=O)*; C16 diacid = O=C(O)CCCCCCCCCCCCCCC(=O)*; γGlu = O=C(O)[C@H](CCC(=O)[*:2])N[*:1]; Sar = CNCC(=O)O

B1: Compound 110 (peptide)
peptide: Ac-EGSAYCI[Trp(1-Me)]QDWGEHRC[Sar]EGKK([γGlu-Gly-γGlu-C18 diacid])-NH2
modifications: disulfide 6-16
SMILES: CC[C@H](C)[C@@H]1NC(=O)[C@@H](NC(=O)[C@H](Cc2ccc(O)cc2)NC(=O)[C@H](C)NC(=O)[C@H](CO)NC(=O)CNC(=O)[C@H](CCC(=O)O)NC(C)=O)CSSC[C@@H](C(=O)N(C)CC(=O)N[C@@H](CCC(=O)O)C(=O)NCC(=O)N[C@@H](CCCCN)C(=O)N[C@@H](CCCCNC(=O)CC[C@H](NC(=O)CNC(=O)CC[C@H](NC(=O)CCCCCCCCCCCCCCCCC(=O)O)C(=O)O)C(=O)O)C(N)=O)NC(=O)[C@H](CCCNC(=N)N)NC(=O)[C@H](Cc2c[nH]cn2)NC(=O)[C@H](CCC(=O)O)NC(=O)CNC(=O)[C@H](Cc2c[nH]c3ccccc23)NC(=O)[C@H](CC(=O)O)NC(=O)[C@H](CCC(N)=O)NC(=O)[C@H](Cc2cn(C)c3ccccc23)NC1=O
B2: Compound 112 (peptide)
peptide: Ac-SEYCI[Trp(1-Me)]QDWGEHRC[Sar]EGAK([γGlu-Gly-γGlu-C18 diacid])-NH2
modifications: disulfide 4-14
SMILES: CC[C@H](C)[C@@H]1NC(=O)[C@@H](NC(=O)[C@H](Cc2ccc(O)cc2)NC(=O)[C@H](CCC(=O)O)NC(=O)[C@H](CO)NC(C)=O)CSSC[C@@H](C(=O)N(C)CC(=O)N[C@@H](CCC(=O)O)C(=O)NCC(=O)N[C@@H](C)C(=O)N[C@@H](CCCCNC(=O)CC[C@H](NC(=O)CNC(=O)CC[C@H](NC(=O)CCCCCCCCCCCCCCCCC(=O)O)C(=O)O)C(=O)O)C(N)=O)NC(=O)[C@H](CCCNC(=N)N)NC(=O)[C@H](Cc2c[nH]cn2)NC(=O)[C@H](CCC(=O)O)NC(=O)CNC(=O)[C@H](Cc2c[nH]c3ccccc23)NC(=O)[C@H](CC(=O)O)NC(=O)[C@H](CCC(N)=O)NC(=O)[C@H](Cc2cn(C)c3ccccc23)NC1=O
B3: Compound 113 (peptide)
peptide: Ac-ASGEYCI[Trp(1-Me)]QDWGEHRC[Sar]EGEK([γGlu-Gly-γGlu-C18 diacid])-NH2
modifications: disulfide 6-16
SMILES: CC[C@H](C)[C@@H]1NC(=O)[C@@H](NC(=O)[C@H](Cc2ccc(O)cc2)NC(=O)[C@H](CCC(=O)O)NC(=O)CNC(=O)[C@H](CO)NC(=O)[C@H](C)NC(C)=O)CSSC[C@@H](C(=O)N(C)CC(=O)N[C@@H](CCC(=O)O)C(=O)NCC(=O)N[C@@H](CCC(=O)O)C(=O)N[C@@H](CCCCNC(=O)CC[C@H](NC(=O)CNC(=O)CC[C@H](NC(=O)CCCCCCCCCCCCCCCCC(=O)O)C(=O)O)C(=O)O)C(N)=O)NC(=O)[C@H](CCCNC(=N)N)NC(=O)[C@H](Cc2c[nH]cn2)NC(=O)[C@H](CCC(=O)O)NC(=O)CNC(=O)[C@H](Cc2c[nH]c3ccccc23)NC(=O)[C@H](CC(=O)O)NC(=O)[C@H](CCC(N)=O)NC(=O)[C@H](Cc2cn(C)c3ccccc23)NC1=O
B4: Compound 114 (peptide)
peptide: Ac-SEYCI[Trp(1-Me)]QDWGEHRC[Sar]EGEK([γGlu-Gly-γGlu-C18 diacid])-NH2
modifications: disulfide 4-14
SMILES: CC[C@H](C)[C@@H]1NC(=O)[C@@H](NC(=O)[C@H](Cc2ccc(O)cc2)NC(=O)[C@H](CCC(=O)O)NC(=O)[C@H](CO)NC(C)=O)CSSC[C@@H](C(=O)N(C)CC(=O)N[C@@H](CCC(=O)O)C(=O)NCC(=O)N[C@@H](CCC(=O)O)C(=O)N[C@@H](CCCCNC(=O)CC[C@H](NC(=O)CNC(=O)CC[C@H](NC(=O)CCCCCCCCCCCCCCCCC(=O)O)C(=O)O)C(=O)O)C(N)=O)NC(=O)[C@H](CCCNC(=N)N)NC(=O)[C@H](Cc2c[nH]cn2)NC(=O)[C@H](CCC(=O)O)NC(=O)CNC(=O)[C@H](Cc2c[nH]c3ccccc23)NC(=O)[C@H](CC(=O)O)NC(=O)[C@H](CCC(N)=O)NC(=O)[C@H](Cc2cn(C)c3ccccc23)NC1=O
B5: Compound 115 (peptide)
peptide: Ac-SEYCI[Trp(1-Me)]QDWGEHRC[Sar]EGKK([γGlu-Gly-γGlu-C18 diacid])-NH2
modifications: disulfide 4-14
SMILES: CC[C@H](C)[C@@H]1NC(=O)[C@@H](NC(=O)[C@H](Cc2ccc(O)cc2)NC(=O)[C@H](CCC(=O)O)NC(=O)[C@H](CO)NC(C)=O)CSSC[C@@H](C(=O)N(C)CC(=O)N[C@@H](CCC(=O)O)C(=O)NCC(=O)N[C@@H](CCCCN)C(=O)N[C@@H](CCCCNC(=O)CC[C@H](NC(=O)CNC(=O)CC[C@H](NC(=O)CCCCCCCCCCCCCCCCC(=O)O)C(=O)O)C(=O)O)C(N)=O)NC(=O)[C@H](CCCNC(=N)N)NC(=O)[C@H](Cc2c[nH]cn2)NC(=O)[C@H](CCC(=O)O)NC(=O)CNC(=O)[C@H](Cc2c[nH]c3ccccc23)NC(=O)[C@H](CC(=O)O)NC(=O)[C@H](CCC(N)=O)NC(=O)[C@H](Cc2cn(C)c3ccccc23)NC1=O
B6: Compound 116 (peptide)
peptide: Ac-SEYCI[Trp(1-Me)]QDWGEHRC[Sar]EGEK([γGlu-Lys-γGlu-C18 diacid])-NH2
modifications: disulfide 4-14
B7: Compound 7 (peptide)
peptide: Ac-ICIWQKWGEHRCT-NH2
modifications: disulfide 2-12
SMILES: CC[C@H](C)[C@H](NC(C)=O)C(=O)N[C@H]1CSSC[C@@H](C(=O)N[C@H](C(N)=O)[C@@H](C)O)NC(=O)[C@H](CCCNC(=N)N)NC(=O)[C@H](Cc2c[nH]cn2)NC(=O)[C@H](CCC(=O)O)NC(=O)CNC(=O)[C@H](Cc2c[nH]c3ccccc23)NC(=O)[C@H](CCCCN)NC(=O)[C@H](CCC(N)=O)NC(=O)[C@H](Cc2c[nH]c3ccccc23)NC(=O)[C@H]([C@@H](C)CC)NC1=O
B8: Compound 129 (peptide)
peptide: Ac-SEFCI[Trp(1-Me)]QDWGEHRC[Sar]EGEGGGK([γGlu-Gly-γGlu-C18 diacid])-NH2
modifications: disulfide 4-14
SMILES: CC[C@H](C)[C@@H]1NC(=O)[C@@H](NC(=O)[C@H](Cc2ccccc2)NC(=O)[C@H](CCC(=O)O)NC(=O)[C@H](CO)NC(C)=O)CSSC[C@@H](C(=O)N(C)CC(=O)N[C@@H](CCC(=O)O)C(=O)NCC(=O)N[C@@H](CCC(=O)O)C(=O)NCC(=O)NCC(=O)NCC(=O)N[C@@H](CCCCNC(=O)CC[C@H](NC(=O)CNC(=O)CC[C@H](NC(=O)CCCCCCCCCCCCCCCCC(=O)O)C(=O)O)C(=O)O)C(N)=O)NC(=O)[C@H](CCCNC(=N)N)NC(=O)[C@H](Cc2c[nH]cn2)NC(=O)[C@H](CCC(=O)O)NC(=O)CNC(=O)[C@H](Cc2c[nH]c3ccccc23)NC(=O)[C@H](CC(=O)O)NC(=O)[C@H](CCC(N)=O)NC(=O)[C@H](Cc2cn(C)c3ccccc23)NC1=O
B9: Compound 131 (peptide)
peptide: Ac-SEFCI[Trp(1-Me)]QDWGEHRCTEGEGGGK([γGlu-Gly-γGlu-C16 diacid])-NH2
modifications: disulfide 4-14
SMILES: CC[C@H](C)[C@@H]1NC(=O)[C@@H](NC(=O)[C@H](Cc2ccccc2)NC(=O)[C@H](CCC(=O)O)NC(=O)[C@H](CO)NC(C)=O)CSSC[C@@H](C(=O)N[C@H](C(=O)N[C@@H](CCC(=O)O)C(=O)NCC(=O)N[C@@H](CCC(=O)O)C(=O)NCC(=O)NCC(=O)NCC(=O)N[C@@H](CCCCNC(=O)CC[C@H](NC(=O)CNC(=O)CC[C@H](NC(=O)CCCCCCCCCCCCCCC(=O)O)C(=O)O)C(=O)O)C(N)=O)[C@@H](C)O)NC(=O)[C@H](CCCNC(=N)N)NC(=O)[C@H](Cc2c[nH]cn2)NC(=O)[C@H](CCC(=O)O)NC(=O)CNC(=O)[C@H](Cc2c[nH]c3ccccc23)NC(=O)[C@H](CC(=O)O)NC(=O)[C@H](CCC(N)=O)NC(=O)[C@H](Cc2cn(C)c3ccccc23)NC1=O
B10: Compound 132 (peptide)
peptide: Ac-SEFCI[Trp(1-Me)]QDWGEHRC[Sar]EK[γGlu]GGGK([γGlu-Gly-γGlu-C18 diacid])-NH2
modifications: disulfide 4-14
SMILES: CC[C@H](C)[C@@H]1NC(=O)[C@@H](NC(=O)[C@H](Cc2ccccc2)NC(=O)[C@H](CCC(=O)O)NC(=O)[C@H](CO)NC(C)=O)CSSC[C@@H](C(=O)N(C)CC(=O)N[C@@H](CCC(=O)O)C(=O)N[C@@H](CCCCN)C(=O)N[C@@H](CCC(=O)NCC(=O)NCC(=O)NCC(=O)N[C@@H](CCCCNC(=O)CC[C@H](NC(=O)CNC(=O)CC[C@H](NC(=O)CCCCCCCCCCCCCCCCC(=O)O)C(=O)O)C(=O)O)C(N)=O)C(=O)O)NC(=O)[C@H](CCCNC(=N)N)NC(=O)[C@H](Cc2c[nH]cn2)NC(=O)[C@H](CCC(=O)O)NC(=O)CNC(=O)[C@H](Cc2c[nH]c3ccccc23)NC(=O)[C@H](CC(=O)O)NC(=O)[C@H](CCC(N)=O)NC(=O)[C@H](Cc2cn(C)c3ccccc23)NC1=O
B11: Compound 133 (peptide)
peptide: Ac-SEFCI[Trp(1-Me)]QDWGEHRCTEK[γGlu]GGGK([γGlu-Gly-γGlu-C18 diacid])-NH2
modifications: disulfide 4-14
SMILES: CC[C@H](C)[C@@H]1NC(=O)[C@@H](NC(=O)[C@H](Cc2ccccc2)NC(=O)[C@H](CCC(=O)O)NC(=O)[C@H](CO)NC(C)=O)CSSC[C@@H](C(=O)N[C@H](C(=O)N[C@@H](CCC(=O)O)C(=O)N[C@@H](CCCCN)C(=O)N[C@@H](CCC(=O)NCC(=O)NCC(=O)NCC(=O)N[C@@H](CCCCNC(=O)CC[C@H](NC(=O)CNC(=O)CC[C@H](NC(=O)CCCCCCCCCCCCCCCCC(=O)O)C(=O)O)C(=O)O)C(N)=O)C(=O)O)[C@@H](C)O)NC(=O)[C@H](CCCNC(=N)N)NC(=O)[C@H](Cc2c[nH]cn2)NC(=O)[C@H](CCC(=O)O)NC(=O)CNC(=O)[C@H](Cc2c[nH]c3ccccc23)NC(=O)[C@H](CC(=O)O)NC(=O)[C@H](CCC(N)=O)NC(=O)[C@H](Cc2cn(C)c3ccccc23)NC1=O
B12: Compound 8 (peptide)
peptide: Ac-ICIWQKWGAHRCTGAES-NH2
modifications: disulfide 2-12
SMILES: CC[C@H](C)[C@H](NC(C)=O)C(=O)N[C@H]1CSSC[C@@H](C(=O)N[C@H](C(=O)NCC(=O)N[C@@H](C)C(=O)N[C@@H](CCC(=O)O)C(=O)N[C@@H](CO)C(N)=O)[C@@H](C)O)NC(=O)[C@H](CCCNC(=N)N)NC(=O)[C@H](Cc2c[nH]cn2)NC(=O)[C@H](C)NC(=O)CNC(=O)[C@H](Cc2c[nH]c3ccccc23)NC(=O)[C@H](CCCCN)NC(=O)[C@H](CCC(N)=O)NC(=O)[C@H](Cc2c[nH]c3ccccc23)NC(=O)[C@H]([C@@H](C)CC)NC1=O

Molecular target: Human C3 (Complement tech cat #A113c) (human, UniProt P01024 23-1663)
Experiment: cell-based or functional assay

Sequence of Human C3 (Complement tech cat #A113c) (P01024 23-1663 limits assumed): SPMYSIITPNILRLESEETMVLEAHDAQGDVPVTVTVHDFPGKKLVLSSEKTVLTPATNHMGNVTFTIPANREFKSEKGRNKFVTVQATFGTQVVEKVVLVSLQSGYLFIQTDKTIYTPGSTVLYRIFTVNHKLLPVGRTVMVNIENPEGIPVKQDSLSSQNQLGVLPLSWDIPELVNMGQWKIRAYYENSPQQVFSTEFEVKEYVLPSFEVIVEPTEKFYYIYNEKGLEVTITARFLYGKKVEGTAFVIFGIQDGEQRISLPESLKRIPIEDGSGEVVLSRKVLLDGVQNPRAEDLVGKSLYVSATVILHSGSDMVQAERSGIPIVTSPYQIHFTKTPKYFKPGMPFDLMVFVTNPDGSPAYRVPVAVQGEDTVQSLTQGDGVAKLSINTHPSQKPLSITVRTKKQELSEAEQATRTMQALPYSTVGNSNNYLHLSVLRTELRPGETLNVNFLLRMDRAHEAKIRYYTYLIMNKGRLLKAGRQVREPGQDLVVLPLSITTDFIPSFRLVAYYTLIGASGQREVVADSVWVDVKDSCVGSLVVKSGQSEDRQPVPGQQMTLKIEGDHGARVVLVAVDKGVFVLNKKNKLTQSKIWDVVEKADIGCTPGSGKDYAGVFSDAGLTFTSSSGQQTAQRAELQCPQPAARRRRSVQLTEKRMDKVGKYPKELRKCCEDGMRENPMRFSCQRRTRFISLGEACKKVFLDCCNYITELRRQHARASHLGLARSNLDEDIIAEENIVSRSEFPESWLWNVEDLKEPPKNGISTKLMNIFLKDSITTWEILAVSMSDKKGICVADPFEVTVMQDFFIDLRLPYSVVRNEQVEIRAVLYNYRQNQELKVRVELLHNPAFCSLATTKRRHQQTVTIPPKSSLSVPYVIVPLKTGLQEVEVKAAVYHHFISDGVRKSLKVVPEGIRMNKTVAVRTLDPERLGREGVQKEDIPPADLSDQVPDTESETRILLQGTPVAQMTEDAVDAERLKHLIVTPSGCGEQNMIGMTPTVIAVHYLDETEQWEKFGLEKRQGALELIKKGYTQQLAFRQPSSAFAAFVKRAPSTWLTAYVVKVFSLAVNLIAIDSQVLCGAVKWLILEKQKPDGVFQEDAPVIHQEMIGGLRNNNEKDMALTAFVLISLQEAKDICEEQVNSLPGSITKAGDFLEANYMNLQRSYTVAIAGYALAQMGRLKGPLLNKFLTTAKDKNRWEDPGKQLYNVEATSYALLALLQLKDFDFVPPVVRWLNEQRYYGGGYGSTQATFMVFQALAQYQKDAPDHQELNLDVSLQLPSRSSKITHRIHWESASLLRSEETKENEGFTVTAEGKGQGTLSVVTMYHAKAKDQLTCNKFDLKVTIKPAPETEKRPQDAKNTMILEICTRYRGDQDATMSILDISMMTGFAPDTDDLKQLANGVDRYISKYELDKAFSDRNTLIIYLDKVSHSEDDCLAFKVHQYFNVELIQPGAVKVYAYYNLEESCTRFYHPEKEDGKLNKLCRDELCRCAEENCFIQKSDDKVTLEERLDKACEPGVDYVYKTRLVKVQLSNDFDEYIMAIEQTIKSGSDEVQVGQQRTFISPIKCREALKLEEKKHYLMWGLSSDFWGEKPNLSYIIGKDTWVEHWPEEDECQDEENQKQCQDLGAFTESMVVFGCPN

Row | Binder | inhibition of hemolysis IC50 [nM]
1 | B1 | < 250
2 | B2 | < 500
3 | B3 | < 500
4 | B4 | < 500
5 | B5 | < 250
6 | B6 | < 500
7 | B7 | < 1000
8 | B8 | < 100
9 | B9 | < 100
10 | B10 | < 100
11 | B11 | < 100
12 | B12 | < 500
